The results in this text go back to patent US20260108608A1 (GC CELL, published 2026).

The assay has as its target T1, CD5 on CD5-positive tumor cell lines (CCRF-CEM, RPMI-8402_Luc / RPMI-8402-Luciferase, RPMI-8402) (human, UniProt P06127 25-495).
T1 sequence (looked up): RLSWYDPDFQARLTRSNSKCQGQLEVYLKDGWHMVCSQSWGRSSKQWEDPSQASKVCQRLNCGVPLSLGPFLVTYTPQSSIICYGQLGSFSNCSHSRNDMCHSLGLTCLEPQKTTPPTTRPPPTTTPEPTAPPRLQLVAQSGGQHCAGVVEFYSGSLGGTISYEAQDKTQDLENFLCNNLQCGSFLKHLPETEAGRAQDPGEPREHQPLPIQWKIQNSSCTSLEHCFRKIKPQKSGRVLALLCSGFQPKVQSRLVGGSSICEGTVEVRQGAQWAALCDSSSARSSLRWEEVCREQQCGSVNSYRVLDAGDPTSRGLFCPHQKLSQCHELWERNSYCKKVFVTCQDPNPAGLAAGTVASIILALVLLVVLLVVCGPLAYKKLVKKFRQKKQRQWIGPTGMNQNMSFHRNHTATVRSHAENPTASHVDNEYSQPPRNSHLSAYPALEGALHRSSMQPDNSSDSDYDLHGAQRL
As to the kind of experiment: cell-based or functional assay.

B1: CD5 CAR (fourth generation), chimeric antigen receptor with anti-CD5 scFv, expressed on cord blood-derived NK cells (receptor)
chain: EIQLVQSGGGLVKPGGSVRISCAASGYTFTNYGMNWVRQAPGKGLEWMGWINTHTGEPTYADSFKGRFTFSLDDSKNTAYLQINSLRAEDTAVYFCTRRGYDWYFDVWGQGTTVTVSSGGGGSGGGGSGGGGSDIQMTQSPSSLSASVGDRVTITCRASQDINSYLSWFQQKPGKAPKTLIYRANRLESGVPSRFSGSGSGTDYTLTISSLQYEDFGIYYCQQYDESPWTFGGGTKLEIKAKPTTTPAPRPPTPAPTIASQPLSLRPEACRPAAGGAVHTRGLDFACDFWVLVVVGGVLACYSLLVTVAFIIFWVRSKRSRLLHSDYMNMTPRRPGPTRKHYQPYAPPRDFAAYRSERVQPLEENVGNAARPRFERNKRVKFSRSADAPAYQQGQNQLYNELNLGRREEYDVLDKRRGRDPEMGGKPRRKNPQEGLYNELQKDKMAEAYSEIGMKGERRRGKGHDGLYQGLSTATKDTYDALHMQALPPR
In the case of B1, the “expression of CD107a and cytokines (IFN-γ and TNF-α) in NK cells co-cultured with CCRF-CEM and RPMI-8402_Luc, CD5 CAR-NK against CBNK” value is ≥ 2 fold.
